Assay results as given in patent CN110420334A, “一种药物缀合物和提高药物分子半衰期的方法” (Jiangnan University, priority 2019, dated 2019).
Like-named read-outs stand apart in the source and are kept apart here. Non-standard residues stand in square brackets, D forms with d. No end group written: not given here. pGlu = O=C1CC[C@@H](C(=O)O)N1

Legend:
CD13 = target: T1, CD13 (Homo sapiens, UniProt P15144); experiment: Competitive flow cytometry against fluorescent anti-CD13 antibody (Example 5); format: binding; settings: HUVEC (CD13 high), 250nM, on ice 1h
T1 construct: HUVEC(CD13高表达)，MCF7(CD13不表达); endogenous in cells; host or cells: HUVEC (positive), MCF7 (negative)
T1 sequence (P15144 whole entry): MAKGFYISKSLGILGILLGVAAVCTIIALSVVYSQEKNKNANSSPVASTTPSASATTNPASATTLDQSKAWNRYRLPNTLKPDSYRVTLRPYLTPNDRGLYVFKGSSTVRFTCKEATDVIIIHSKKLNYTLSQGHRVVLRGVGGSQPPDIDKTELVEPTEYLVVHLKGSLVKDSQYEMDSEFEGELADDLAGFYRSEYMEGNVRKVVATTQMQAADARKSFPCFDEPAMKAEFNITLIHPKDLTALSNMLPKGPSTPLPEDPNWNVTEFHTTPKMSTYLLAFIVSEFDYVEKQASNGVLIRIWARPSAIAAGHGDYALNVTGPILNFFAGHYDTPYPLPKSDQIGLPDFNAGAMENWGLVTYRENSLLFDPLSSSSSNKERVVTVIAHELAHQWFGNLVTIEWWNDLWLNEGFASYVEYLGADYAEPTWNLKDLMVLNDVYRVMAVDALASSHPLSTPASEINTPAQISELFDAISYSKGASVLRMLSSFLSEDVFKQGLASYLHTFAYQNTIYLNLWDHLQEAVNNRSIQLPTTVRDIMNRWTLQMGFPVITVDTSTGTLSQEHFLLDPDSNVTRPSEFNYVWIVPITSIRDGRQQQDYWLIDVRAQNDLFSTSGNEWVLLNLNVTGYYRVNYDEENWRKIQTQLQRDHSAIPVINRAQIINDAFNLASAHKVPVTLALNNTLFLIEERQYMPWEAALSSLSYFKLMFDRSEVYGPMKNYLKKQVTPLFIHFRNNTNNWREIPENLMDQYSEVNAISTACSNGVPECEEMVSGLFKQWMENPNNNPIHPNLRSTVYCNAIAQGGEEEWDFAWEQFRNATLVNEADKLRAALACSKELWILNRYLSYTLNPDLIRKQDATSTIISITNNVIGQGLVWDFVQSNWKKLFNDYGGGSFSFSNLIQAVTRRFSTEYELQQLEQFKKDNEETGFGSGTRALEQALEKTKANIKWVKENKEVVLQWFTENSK

LHRH受体 = target: T2, LHRH受体 (Homo sapiens, UniProt P30968); experiment: Competitive flow cytometry against fluorescent anti-LHRH receptor antibody (Example 4); format: binding; settings: MCF7 (LHRH high), 250nM, on ice 1h
T2 construct: MCF7(LHRH高表达)，UCI107(LHRH不表达); endogenous in cells; host or cells: MCF7 (positive), UCI107 (negative)
T2 sequence (P30968 1-328): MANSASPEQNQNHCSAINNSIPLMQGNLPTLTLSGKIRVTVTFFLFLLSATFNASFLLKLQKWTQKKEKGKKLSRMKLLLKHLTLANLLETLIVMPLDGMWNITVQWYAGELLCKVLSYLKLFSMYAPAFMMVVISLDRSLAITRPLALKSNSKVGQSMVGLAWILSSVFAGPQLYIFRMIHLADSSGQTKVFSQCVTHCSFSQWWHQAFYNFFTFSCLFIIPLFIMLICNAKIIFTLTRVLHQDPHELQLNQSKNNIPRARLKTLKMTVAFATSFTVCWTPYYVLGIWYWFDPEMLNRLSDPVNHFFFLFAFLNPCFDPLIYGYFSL

[1] = mouse, in vivo

| Substance | competitive inhibition of anti-CD13 antibody binding to HUVEC (CD13) | competitive inhibition of anti-LHRH receptor antibody binding to LHRH receptor (LHRH受体) | serum half-life [1] [min] | serum half-life ([1]; iv) [min] |
| --- | --- | --- | --- | --- |
| NGR-DNP: cyclic NGR peptide (chain GGGCNGRC) coupled with DNP by amide condensation (not fully specified (bridges); cysteine pairing not given here; also: DNP conjugated by amide condensation, position not given here) | 竞争性抑制 | – | – | – |
| Glp-His-Trp-Ser-Tyr-D-Lys-Leu-Arg-Pro-Gly-NH2 (chain 1 [pGlu]HWSY; chain 2 [dK]LRPG-NH2; numbers in words are those of the source; also: chains 1 and 2 are one continuous chain (Tyr-D-Lys peptide bond)) [LHRH] | – | 竞争性抑制 | 2.2 | 2.6 |
